Results from article PMC3482105.

Assays:
GCaMP2-LIA = test: crystal structure
GCaMP5H = test: crystal structure

stoichiometry N (GCaMP2-LIA) | stoichiometry N (GCaMP5H) | Substance
2 | – | GCaMP2-LIA
– | 2 | GCaMP5H
